# Measured values published in article PMC4899250 (Journal of neurochemistry, 2016).
# Target: the molecule itself
# Assay: native MS
protein,measurement,value
Ac-AGIGDTPSLEDEAAGHVTQARMVSKSKDGTGSDDKKAKG-NH2 [tau^106-144],stoichiometry N,2
